Measurements published in US20210261668A1 (DRAGONFLY THERAPEUTICS, published 2021).
Changes are numbered by the printed parent chain.

T1: mouse NKG2D-Fc fusion protein (mouse; human, UniProt O54709 90-232)
T1 construct: extracellular domain; also called mouse recombinant NKG2D-Fc; recombinant mouse NKG2D-Fc; not shown: human IgG1 Fc domain
T1 sequence (looked up): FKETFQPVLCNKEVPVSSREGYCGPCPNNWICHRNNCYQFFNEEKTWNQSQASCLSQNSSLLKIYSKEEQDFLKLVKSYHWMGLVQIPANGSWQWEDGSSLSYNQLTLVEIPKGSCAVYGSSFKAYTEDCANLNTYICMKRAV

T2: cynomolgus NKG2D-Fc fusion protein (cynomolgus; human, UniProt P61252 73-216)
T2 construct: extracellular domain; also called cynomolgus recombinant NKG2D-Fc; cynomolgus recombinant NKG2D; not shown: human IgG1 Fc domain
T2 sequence (looked up): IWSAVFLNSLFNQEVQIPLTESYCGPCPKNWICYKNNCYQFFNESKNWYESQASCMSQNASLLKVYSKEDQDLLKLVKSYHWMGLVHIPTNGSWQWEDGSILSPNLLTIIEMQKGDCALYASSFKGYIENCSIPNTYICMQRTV

T3: human NKG2D-Fc fusion protein (human, UniProt P26718 73-216)
T3 construct: extracellular domain; also called recombinant human NKG2D-Fc; human recombinant NKG2D; not shown: human IgG1 Fc domain
T3 sequence (looked up): T2 sequence (looked up) with N43D, I133T

B1: ADI-29379 (antibody, V domains shown)
VH: QVQLVQSGAEVKKPGASVKVSCKASGYTFTSYYMHWVRQAPGQGLEWMGIINPSGGSTSYAQKFQGRVTMTRDTSTSTVYMELSSLRSEDTAVYYCARGAPNYGDTTHDYYYMDVWGKGTTVTVSS
VL: EIVMTQSPATLSVSPGERATLSCRASQSVSSNLAWYQQKPGQAPRLLIYGASTRATGIPARFSGSGSGTEFTLTISSLQSEDFAVYYCQQYDDWPFTFGGGTKVEIK
notes: also called E79
B2: ADI-29378 (antibody, V domains shown)
VH: QVQLVQSGAEVKKPGASVKVSCKASGYTFTSYYMHWVRQAPGQGLEWMGIINPSGGSTSYAQKFQGRVTMTRDTSTSTVYMELSSLRSEDTAVYYCAREGAGFAYGMDYYYMDVWGKGTTVTVSS
VL: B1 VL with M4L, V13L, N32Y, G50D, T53N, E70D, Q79E, S80P, Y91S, D93N
notes: also called E78
B3: ADI-27744 (antibody, V domains shown)
VH: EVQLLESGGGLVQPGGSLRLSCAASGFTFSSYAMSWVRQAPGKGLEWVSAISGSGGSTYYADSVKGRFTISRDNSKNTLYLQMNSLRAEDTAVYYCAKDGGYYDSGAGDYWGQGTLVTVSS
VL: DIQMTQSPSSVSASVGDRVTITCRASQGIDSWLAWYQQKPGKAPKLLIYAASSLQSGVPSRFSGSGSGTDFTLTISSLQPEDFATYYCQQGVSYPRTFGGGTKVEIK
notes: also called A44
B4: ADI-27749 (antibody, V domains shown)
VH: EVQLVESGGGLVKPGGSLRLSCAASGFTFSSYSMNWVRQAPGKGLEWVSSISSSSSYIYYADSVKGRFTISRDNAKNSLYLQMNSLRAEDTAVYYCARGAPMGAAAGWFDPWGQGTLVTVSS
VL: B3 VL with D30S, Y94F
notes: also called A49
B5: ADI-29447 (antibody, V domains shown)
VH: QVQLQQWGAGLLKPSETLSLTCAVYGGSFSGYYWSWIRQPPGKGLEWIGEIDHSGSTNYNPSLKSRVTISVDTSKNQFSLKLSSVTAADTAVYYCARARGPWSFDPWGQGTLVTVSS
VL: DIQMTQSPSTLSASVGDRVTITCRASQSISSWLAWYQQKPGKAPKLLIYKASSLESGVPSRFSGSGSGTEFTLTISSLQPDDFATYYCQQYDTFITFGGGTKVEIK
notes: also called F47
B6: ADI-27724 (antibody, V domains shown)
VH: B5 VH
VL: not shown

target: T1, mouse NKG2D-Fc fusion protein; test: ELISA on coated NKG2D-Fc

| binding result | Binder |
| --- | --- |
| binds | B1 |
| binds | B2 |
| binds | B3 |
| binds | B4 |
| binds | B5 |
| binds | B6 |

target: T2, cynomolgus NKG2D-Fc fusion protein; test: ELISA on coated NKG2D-Fc

| binding result | Binder |
| --- | --- |
| binds | B1 |
| binds | B2 |
| binds | B3 |
| binds | B4 |
| binds | B5 |
| binds | B6 |

target: T3, human NKG2D-Fc fusion protein; test: ELISA on coated NKG2D-Fc

| binding result | Binder |
| --- | --- |
| binds | B1 |
| binds | B2 |
| binds | B3 |
| binds | B4 |
| binds | B5 |
| binds | B6 |
